Numbering of substitutions follows the chain as printed.
B1: humanized anti-GFRAL antibody HC-375d/LC-375a (antibody, V domains shown)
VH: QVQLVQSGAEVKKPGSSVKVSCKASGYTFTDYYINWVRQAPGQGLEWIGRIYPGNGNTYHNEKFKGRATLTADKSTSTAYMELSSLRSEDTAVYYCAREGLYYDYDRYFDYWGQGTLVTVSS
VL: DIVMTQSPDSLAVSLGERATINCRASESVDTYGNSFMHWYQQKPGQPPKLLIYLASNLESGVPDRFSGSGSGTDFTLTISSLQAEDVAVYYCHQNNEDPPAFGGGTKVEIK
notes: humanized 5F12
B2: humanized anti-GFRAL antibody HC-375e/LC-375a (antibody, V domains shown)
VH: B1 VH with I48M, K74E
VL: B1 VL
notes: humanized 5F12
B3: humanized anti-GFRAL antibody HC-375e/LC-375g (antibody, IgG1, V domains shown)
VH: B1 VH with I48M, K74E
VL: B1 VL with M4L, G72R
notes: humanized 5F12
B4: humanized anti-GFRAL antibody HC-375d/LC-375g (antibody, IgG1, V domains shown)
VH: B1 VH
VL: B1 VL with M4L, G72R
notes: humanized 5F12
B5: antibody designated 22N5 (antibody, V domains shown)
VH: QNQLVQSGPELKKPGEIVKISCKTSGYTFTDYSMHWVKKTPGKGFKWMGWINTETGEPTYADDFKGRFAFSLETSANTAHLQITNLKNEDTATYFCVKGTLNYWGQGTTLTVSS
VL: DIKMTQSPSSMYASLGERVTITCKASQDIKSYLNWFQQKPGKSPKTLIYRTKRLVDGVPSRFSGSGSGQDYSLTVSSLEYDDVGIYYCLQYVEFPLTFGDGTKLELK
notes: mouse hybridoma monoclonal
B6: antibody designated 5A20 (antibody, V domains shown)
VH: QVQLQQSGPELMKPGASVILSCKAIGYTFTDYWIEWVKERPGHGLEWIGEILLGSDSIHFNEKFKGKATISADTSSNTAYMQLSSLTTEDSAIYYCVRQDWNWYFDVWGTGTTVTVSS
VL: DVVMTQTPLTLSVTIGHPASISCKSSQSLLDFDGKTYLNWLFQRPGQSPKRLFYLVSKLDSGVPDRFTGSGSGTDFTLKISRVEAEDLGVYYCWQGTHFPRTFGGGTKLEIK
notes: mouse hybridoma monoclonal
B7: antibody designated 8D8 (antibody, V domains shown)
VH: QVQLKESGPGLVAPSQSLSITCTVSGFSLSRYSVHWVRQPPGKGLEWLGMIWGFGSTDYNSALKSRLSITKDNSKSQFFLKMNSLQTDDTAMYYCARIHTTAGSYWGQGTLVTVSA
VL: DIVMTQSQKFMSTSIGDRVSVTCKASQNVGTNVAWYQQKPGQSPKALVYSTSYRYSGVPDRFTGSGSGTDFTLTISNVQSEDLAEYFCHQYNSYPLTFGAGTKLELK
notes: mouse hybridoma monoclonal
B8: antibody designated 17J16 (antibody, V domains shown)
VH: QVQLQQSGAELAKPGASVKMSCKTSGYTFTDYWIHWVKQRPGQGLEWIGYINPNSNYAEYNQKFKVKATLTADKSSSTAYLQLSRLTSEDSAVYYCARFDWNWYFHVWGAGSTVTVSS
VL: DVALTQIPLTLSVTVGQPASISCKSSQSLSDSDGKTYLNWLLQKPGQSPKRLIYLVSRLGSGVPDRFTGSGSGADFTLKISRVEAEDLGVYYCWQGTHFPQTFGGGTKLEIK
notes: mouse hybridoma monoclonal
B9: antibody designated 24G2 (antibody, V domains shown)
VH: QVQLQQSGAELLKPGASVKLSCKASGYTFTTYWMHWVKQRPGQGLEWIGMIHPNSGSSNYNEKFKNKATLTVDKSSSTAYMQLSSLTSEDSAVYFCARSDYGFIPYFDYWGQGTTLTVSS
VL: DILLTQSPAILSVSPGERVSFSCRASQSIGTSIHWYQQRTNGSPRLLIKYASESISGIPSRFSGSGSGTDFTLIINSVESEDIADYYCQQSNSWPTFTFGAGTKLELK
notes: mouse hybridoma monoclonal
B10: antibody designated 1C1 (antibody, V domains shown)
VH: QMQLKQSGPGLVQPSQSLSITCTVSGFSLNDYGVHWIRQSPGKGLEWLGVIWSGGRTDYNAAFISRLSISKDNSKSQVFFKMSSLQPQDTAIYYCARWALYFLYGGSMDYWGQGTSVTVSS
VL: DVVLTQTPLSLPVSPGDQASISCRSSQSLVHSSGITYLHWYLQKPGQSPKLLIYKLSNRFSGVPDRFSGSGSGTDFTLKISRVEAEDLGVYFCSQSTHVPPWTFGGGTKLEIK
notes: mouse hybridoma monoclonal
B11: antibody designated 2A9 (antibody, V domains shown)
VH: EVKLVESGGGLVKPGGSLKLSCAASGFTFSTYAMSWVRQTPEKRLEWVASITSGGTTYYTDSVKGRFTISRDNARNILYLQMSSLRSEDTAMYYCARDGNFYYYGMDYWGQGTSVTVSS
VL: DIVMTQSQKFMSTSVGDRVSITCKASQNVGTAVAWYQQKPGQSPKILIYSASNRFTGVPDRFTGSGSGTDFTLTISNMQSEDLADYFCQQYSSYFTFGGGTKLELK
notes: mouse hybridoma monoclonal

Target: T1, human GFRAL expressed on cells (human, UniProt Q6UXV0 20-394)
T1 sequence: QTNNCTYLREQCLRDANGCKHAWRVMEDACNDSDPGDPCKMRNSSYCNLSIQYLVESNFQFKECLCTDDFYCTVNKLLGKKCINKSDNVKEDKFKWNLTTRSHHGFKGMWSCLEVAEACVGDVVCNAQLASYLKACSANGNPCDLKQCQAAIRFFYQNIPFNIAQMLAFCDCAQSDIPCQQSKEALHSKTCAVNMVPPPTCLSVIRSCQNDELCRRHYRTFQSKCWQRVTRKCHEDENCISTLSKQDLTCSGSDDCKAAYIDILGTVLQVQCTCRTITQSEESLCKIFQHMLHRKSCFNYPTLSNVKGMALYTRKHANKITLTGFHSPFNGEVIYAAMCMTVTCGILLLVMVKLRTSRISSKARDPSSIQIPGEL
Test: cell-based or functional assay

Point of comparison: B4, “IC50, ELK1-luciferase reporter (hGFRAL/hRET)” value 2.79 nM. Against it:
- B1 — within 1.5-fold, 3.86 nM
- B2 — within 1.5-fold, 2.81 nM
- B3 — within 1.5-fold, 2.27 nM

Target: T1, human GFRAL expressed on cells
Test: cell-based or functional assay
Remark: another data set of the same source

Point of comparison: B8, “IC50, ERK phosphorylation in U2OS hGFRAL/hRET cells” value 0.1 nM. Against it:
- B5 — 9-fold higher, 0.9 nM
- B6 — 18-fold higher, 1.8 nM
- B7 — 6.3-fold higher, 0.63 nM
- B9 — 19-fold higher, 1.86 nM
- B10 — 6.1-fold higher, 0.61 nM
- B11 — 9.4-fold higher, 0.94 nM

Target: T2, mouse GFRAL (analyte in Biacore assays) (mouse, UniProt Q6SJE0 20-349, limits assumed)
T2 construct: injected in solution over captured antibody
T2 sequence: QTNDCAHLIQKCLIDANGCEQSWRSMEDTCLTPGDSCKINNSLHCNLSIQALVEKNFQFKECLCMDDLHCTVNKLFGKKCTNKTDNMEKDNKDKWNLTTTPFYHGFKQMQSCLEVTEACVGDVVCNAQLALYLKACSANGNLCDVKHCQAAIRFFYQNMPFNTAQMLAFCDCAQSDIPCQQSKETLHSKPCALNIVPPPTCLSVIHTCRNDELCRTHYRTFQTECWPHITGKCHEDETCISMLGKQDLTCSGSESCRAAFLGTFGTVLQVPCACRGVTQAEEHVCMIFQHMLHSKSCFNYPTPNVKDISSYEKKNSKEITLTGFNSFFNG
Test: Biacore SPR, antibody captured, GFRAL injected
Procedure: (§1) In addition, the binding affinity of antibodies to human and mouse GFRAL were measured. For example, antibodies were rank ordered based on their binding affinity to human GFRAL and mouse GFRAL by low resolution KD measurement by Biacore. Briefly, an anti-mouse Fc antibody (Sigma-Aldrich, St. Louis, Mo.) was immobilized on all four flow cells of a CM5 chip using amine coupling reagents (GE Healthcare LifeSciences, Piscataway, N.J.). Purified antibodies were captured (˜100 RUs) on flow cells 2, 3 and 4 using flow cell 1 as a reference. This was followed by injection of human or mouse GFRAL (25 nM in PBS-P buffer) at a flow rate of 70 μL/m in and monitoring the binding kinetics at 25° C.
(§2) Binding affinity measurements were also made in additional Biacore based assays. For example, equilibrium dissociation constant (KD) measurements were carried out with purified antibodies to evaluate their binding to human GFRAL or mouse GFRAL. As mentioned above, anti-mouse Fc antibody (Sigma-Aldrich, St. Louis, Mo.) was immobilized on all four flow cells of a CM5 chip using amine coupling reagents (GE Healthcare LifeSciences, Piscataway, N.J.). Purified antibodies were captured (˜100 RUs) on flow cells 2, 3 and 4 using flow cell 1 as a reference. This was followed by injection of human or mouse GFRAL in PBS-P buffer) at a flow rate of 70 μL/min and the binding kinetics were evaluated at 25° C.

Point of comparison: B11, Kd 3.6 nM. Against it:
- B5 — within 1.5-fold, 3.47 nM
- B6 — lower, < 0.1 nM
- B7 — 2.3-fold higher, 8.17 nM
- B8 — lower, < 0.1 nM
- B9 — within 1.5-fold, 5.02 nM
- B10 — within 1.5-fold, 3.68 nM

Point of comparison: B11, koff 0.0029 s⁻¹. Against it:
- B5 — 3.1-fold lower, 0.000943 s⁻¹
- B6 — 7.2-fold lower, 0.0004 s⁻¹
- B7 — within 1.5-fold, 0.00281 s⁻¹
- B8 — 290-fold lower, 1e-05 s⁻¹
- B9 — 1.7-fold lower, 0.00173 s⁻¹
- B10 — within 1.5-fold, 0.0025 s⁻¹

Target: T3, human GFRAL (analyte in Biacore assays) (human, UniProt Q6UXV0 19-351, limits assumed)
T3 construct: injected in solution over captured antibody; also called hGFRAL
T3 sequence: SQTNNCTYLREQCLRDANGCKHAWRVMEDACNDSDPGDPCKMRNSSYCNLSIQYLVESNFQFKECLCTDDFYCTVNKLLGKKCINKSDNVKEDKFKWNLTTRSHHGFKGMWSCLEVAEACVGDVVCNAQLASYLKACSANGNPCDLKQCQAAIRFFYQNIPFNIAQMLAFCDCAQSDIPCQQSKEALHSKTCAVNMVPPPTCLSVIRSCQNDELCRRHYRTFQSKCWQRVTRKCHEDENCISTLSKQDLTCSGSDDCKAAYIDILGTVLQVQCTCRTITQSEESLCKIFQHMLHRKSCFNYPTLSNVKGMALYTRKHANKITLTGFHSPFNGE
Test: Biacore SPR, antibody captured, GFRAL injected
Procedure: as §1, §2

Point of comparison: B7, Kd 0.46 nM. Against it:
- B5 — 2.2-fold lower, 0.21 nM
- B6 — 5.7-fold lower, 0.081 nM
- B8 — lower, < 0.1 nM
- B9 — 3-fold higher, 1.4 nM
- B10 — lower, < 0.1 nM
- B11 — 1.8-fold lower, 0.25 nM

Point of comparison: B6, koff 3.32e-05 s⁻¹. Against it:
- B5 — 4-fold higher, 0.000132 s⁻¹
- B7 — 3.7-fold higher, 0.000124 s⁻¹
- B8 — 3.3-fold lower, ~1e-05 s⁻¹
- B9 — 21-fold higher, 0.000696 s⁻¹
- B11 — 4.6-fold higher, 0.000153 s⁻¹

Target: T1, human GFRAL expressed on cells
Test: cell-based or functional assay
Remark: another data set of the same source

Point of comparison: B9, “IC50, ELK1-luciferase reporter (hGFRAL/hRET)” value 18.9 nM. Against it:
- B5 — 2.4-fold lower, 7.74 nM
- B6 — 5.9-fold lower, 3.19 nM
- B7 — 9-fold lower, 2.11 nM
- B8 — 28-fold lower, 0.666 nM
- B10 — 2.2-fold lower, 8.64 nM
- B11 — 5.1-fold lower, 3.71 nM

Target: T4, mouse GFRAL expressed on cells (mouse, UniProt Q6SJE0 20-393)
T4 sequence: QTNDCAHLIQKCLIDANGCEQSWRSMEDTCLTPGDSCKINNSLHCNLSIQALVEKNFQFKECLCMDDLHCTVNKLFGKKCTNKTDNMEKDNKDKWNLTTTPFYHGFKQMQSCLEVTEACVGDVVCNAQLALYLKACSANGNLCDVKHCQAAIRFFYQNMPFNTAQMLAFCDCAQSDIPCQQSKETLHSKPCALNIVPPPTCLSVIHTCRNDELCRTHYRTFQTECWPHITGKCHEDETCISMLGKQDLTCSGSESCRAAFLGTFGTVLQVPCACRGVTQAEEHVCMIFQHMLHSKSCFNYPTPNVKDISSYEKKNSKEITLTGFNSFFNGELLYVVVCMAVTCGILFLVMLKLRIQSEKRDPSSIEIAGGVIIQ
Test: cell-based or functional assay

Point of comparison: B5, “IC50, ELK1-luciferase reporter (mGFRAL/mRET)” value 2.6 nM. Against it:
- B6 — 4.3-fold lower, 0.6 nM
- B7 — 1.8-fold lower, 1.42 nM
- B8 — 6.4-fold lower, 0.407 nM
- B9 — 3.2-fold higher, 8.32 nM
- B10 — 2.2-fold lower, 1.19 nM
- B11 — 3-fold higher, 7.87 nM

Target: T3, human GFRAL (analyte in Biacore assays)
Test: Biacore SPR, antibody captured, human GFRAL injected
Procedure: Exemplary humanized anti-GFRAL antibodies identified in Example 6 were assayed for their binding affinity to human GFRAL. Binding affinity measurements were made in Biacore based assays. For example, equilibrium dissociation constant (KD) measurements were carried out with purified antibodies to evaluate their binding to human GFRAL. Using methods described in Example II, anti-mouse Fc antibody (Sigma-Aldrich, St. Louis, Mo.) was immobilized on all four flow cells of a CM5 chip using amine coupling reagents (GE Healthcare LifeSciences, Piscataway, N.J.). Purified humanized anti-GFRAL antibodies were captured (˜100 RUs) on flow cells 2, 3 and 4 using flow cell 1 as a reference. This was followed by injection of human GFRAL in PBS-P buffer) at a flow rate of 70 μL/min and the binding kinetics were evaluated at 25° C.

Point of comparison: B1, Kd 0.074 nM. Against it:
- B2 — within 1.5-fold, 0.091 nM
- B3 — within 1.5-fold, 0.081 nM
- B4 — within 1.5-fold, 0.077 nM

Source: patent publication US20170306031A1 (NGM BIOPHARMACEUTICALS, published 2017)
